Assay results reported in article doi:10.1101/2022.01.06.475303 (bioRxiv, 2022).

Target: SARS-CoV-2 receptor binding domain (RBD), Wuhan-1 (SARS-CoV-2 Wuhan-Hu-1, UniProt P0DTC2)
Experiment: SPR

B1: eCC12.1.7 IgG (antibody, V domains shown)
VH: EVQLVESGGGLIQPGGSLRLSCAASGLTVSSNYMTWVRQAPGKGLEWVSVIYAGGSTFYADSVKGRFTISRDNSKNTLYLQMNSLRAEDTAVYYCARDLDVYGVDVWGQGTTVTVSS
VL: DIQLTQSPSFLSASVGDRVTITCRASQGISRYLAWYQQKPGKAPKLLIYAASTLQYGVPSRFSGSGSGTEFTLTISSLQPEDFATYYCQQLNSYPPKYTFGPGTKVEIK
  binding result: binds
